Legend:
[1] = molecular target: T1, recombinant human ENTPD2 (residues 29-462) (Homo sapiens, UniProt Q9Y5L3); test: Biochemical human ENTPD2 functional assay (Transcreener ADP2 TR-FRET); settings: FIG. 15
T1 construct: residues 29-462 of human or cyno ENTPD2 were cloned into expression vector; GP67 signal peptide (N); made in house; host or cells: High Five (Trichoplusia ni) insect cells, baculovirus
T1 sequence (Q9Y5L3 29-462): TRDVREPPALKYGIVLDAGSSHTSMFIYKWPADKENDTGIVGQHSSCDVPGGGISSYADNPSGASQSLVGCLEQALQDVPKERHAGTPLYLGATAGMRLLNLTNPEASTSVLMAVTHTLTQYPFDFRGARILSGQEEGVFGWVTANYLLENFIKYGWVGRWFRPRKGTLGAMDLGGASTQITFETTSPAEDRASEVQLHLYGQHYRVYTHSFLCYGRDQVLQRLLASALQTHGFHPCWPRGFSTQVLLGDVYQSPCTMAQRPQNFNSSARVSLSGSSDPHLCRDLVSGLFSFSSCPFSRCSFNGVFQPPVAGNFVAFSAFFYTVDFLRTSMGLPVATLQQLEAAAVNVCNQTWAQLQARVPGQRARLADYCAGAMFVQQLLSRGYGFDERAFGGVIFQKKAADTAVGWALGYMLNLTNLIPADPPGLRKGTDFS
Excerpt: Biochemical and cell-based functional assays were developed in-house to understand functional impact of anti-ENTPD2 Abs against purified extracellular domain of ENTPD2 (residues 29-462), as well as against the fully intact protein in the context of the native cell-based conformation. ENTPD2 hydrolyzes ATP to ADP, which can subsequently be detected using the HTRF Transcreener ADP2 TR-FRET Red Assay (BellBrook Labs, Madison, Wis.) where ENTPD2-produced ADP would compete with the ADP Tracer for binding to the anti-ADP-Tb antibody. The resulting signal is inversely proportional to the concentration of ADP in the sample.
To evaluate activity of anti-ENTPD2 Abs in the ENTPD2 biochemical assay, anti-ENTPD2 Abs and recombinant ENTPD2 (residues 29-462) were diluted in reaction buffer (50 mM HEPES, pH 7.1, 10 mM MgCl2, 0.01% BSA) to the desired concentration. 4 μL per well of the ENTPD2 solution and 2 μL per well of the Anti-ENTPD2 Ab solution were transferred into a ProxiPlate (PerkinElmer, Waltham, Mass.) and incubated for 30 min at room temperature. Reaction was then initiated via addition of 2 μl of ATP (final assay concentration of 1 μM), and the sample was incubated for 25 min at room temperature. […]
HTRF signal (Emission at 620 nm and 665 nm) was assessed in both assays using the Envision plate reader in HTRF mode (Perkin Elmer, Waltham, Mass.). HTRF ratio was determined using the following formula: HTRF ratio=R=Emission at 665 nm/Emission at 620 nm×10,000. Subsequently % Residual Activity and % Inhibition were determined as follows:
Where R0% is the HTRF ratio of the negative control (0% enzyme activity), and R100% is the HTRF ratio of the positive control (100% enzyme activity). Data were analyzed in Microsoft Excel and graphed using GraphPad's Prism 7.0 software and IC50 values were obtained using non-linear regression, log (agonist) vs. response-variable slope (four parameters) analysis.

ENTPD2 = molecular target: T2, ENTPD2 (Homo sapiens, UniProt Q9Y5L3); test: Hybridoma mAb screen: cell-based assay for inhibition of ATP hydrolysis by ENTPD2; settings: hybridoma-derived mAbs
T2 sequence (Q9Y5L3 1-495): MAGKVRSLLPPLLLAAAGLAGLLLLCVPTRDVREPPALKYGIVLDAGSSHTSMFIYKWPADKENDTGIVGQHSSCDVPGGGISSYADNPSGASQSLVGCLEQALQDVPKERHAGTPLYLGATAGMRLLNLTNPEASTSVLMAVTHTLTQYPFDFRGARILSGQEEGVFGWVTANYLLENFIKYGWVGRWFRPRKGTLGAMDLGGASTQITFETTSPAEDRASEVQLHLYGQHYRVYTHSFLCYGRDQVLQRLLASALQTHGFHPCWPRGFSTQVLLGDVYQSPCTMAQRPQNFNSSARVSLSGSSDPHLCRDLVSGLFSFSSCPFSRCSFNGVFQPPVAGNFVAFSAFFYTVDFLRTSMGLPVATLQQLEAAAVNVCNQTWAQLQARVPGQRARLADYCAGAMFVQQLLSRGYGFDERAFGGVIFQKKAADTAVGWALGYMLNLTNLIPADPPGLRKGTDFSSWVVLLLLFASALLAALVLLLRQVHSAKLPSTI
Excerpt: Hybridoma-derived mAbs were screened in a cell-based assay for inhibition of ATP hydrolysis by ENTPD2.

| Molecule | inhibition of the catalytic activity of recombinant human ENTPD2 [1] | inhibition of ATP hydrolysis by ENTPD2 (ENTPD2) |
| --- | --- | --- |
| mAb17: hybridoma-derived lead inhibitory anti-human ENTPD2 mAb; VH/VL DNA SEQ ID NO: 234/238 (antibody, V domains shown) VH: EVQLQQFGAELVKPGASVKISCKASGYTFTDYNMDWVKQSHGKSLEWIGDINPKYDISTYNQQFKGKATLTVDKSSSTAYMELRSLTSEDTAVYYCARRGFFLYYGINYYYFDVWGAGTTVTVSS VL: QIVLTQSPAIMSASLGEEITLTCSASSSVSYIHWYQQKSGTSPTLLIYSTSNLASGVPSRFSGSGSGTFYSLTISSVEAEDAADYYCHQWSSYPWTFGGGTKLEIK | potently inhibit | lead inhibitory mAbs |
| mAb19: anti-human ENTPD2 antibody of Table 1; VH SEQ ID NO: 250, VL SEQ ID NO: 257 (antibody, V domains shown) VH: EVQLQQFGAELVKPGTSVKISCKASGYTFTDYNMDWVKQSHGKSLEWIGDINPNYDITTYNQRFKGKATLTVDKSSSTAYMELRSLTSEDTAVYYCARRGFFPYYGNSYYYFDVWGAGTTVTVSS VL: QIVLTQSPTIMSASLGEEITLTCSASSSVSYMHWYQQKSGTSPKLLIYSTSNLASGVPSRFSGSGSGTFYSLTISSVEAEDAADYYCHQWSNYPWTFGGGTKLEIK | potently inhibit | – |
| mAb21: anti-human ENTPD2 antibody of Table 1; VH SEQ ID NO: 281, VL SEQ ID NO: 287 (antibody, V domains shown) VH: EVQLQQSGPELVKPGASVKISCKTSGYTFTEYTMHWVKQSHGKSLEWIGGINPNNGITTYNQKFKGKATLTVDKSSSTAYMDLRSLTSEGSAVYYCARRGFPIYYYGTSLYYFDYWGQGTTLTVSS VL: QIVLTQSPAIMSASLGEEITLTCSASSSVSYMHWYQQRSGTSPKLLIYTTSNLASGVPSRFSGSGSGTFYSLTISSVEAEDAADYYCHQWSSYPWTFGGGTKLEIK | potently inhibit | – |
| mAb16: hybridoma-derived lead inhibitory anti-human ENTPD2 mAb; VH/VL DNA SEQ ID NO: 226/230 (antibody, V domains shown) VH: DIQLQESGPGLVKPSQSLSLTCSVTGYSITSGYYWNWIRQFPGNKLEWMGYISYDGDNNYNPSLKNRISITRDTSKNQFFLKLSSVTTEDTATYYCAGGYYRYGLSYYYVMDYWGQGTSVTVSS VL: DTVLTQSPASLAVSLGQRATISCKASQSVDYDGNSYMNWYQQKPGQPPKLLIYAASNLESGIPARFSGSGSGTDFTLNIHPVEEEDAATYYCQQSNEDPPTFGGGTKLEIK | – | lead inhibitory mAbs |
